From patent publication US20180194859A1

Molecular target: Recombinant EGFR/His (UniProt P00533)
Test: SPR (Biacore T200), antibody captured on anti-human Fc, EGFR/His as analyte, 1:1 fit

Kd: 2.8 nM
Substance: αHER2×αEGFR LDAb (trastuzumab IgG2 azide clicked to cetuximab IgG2 DBCO) (bispecific antibody)
